Measured values as given in patent US20120065136A1 (UNIVERSITY OF ROCHESTER, published 2012).

T1: A3C1C2 subunit of factor VIII (human, UniProt P00451 1709-2351)
T1 sequence: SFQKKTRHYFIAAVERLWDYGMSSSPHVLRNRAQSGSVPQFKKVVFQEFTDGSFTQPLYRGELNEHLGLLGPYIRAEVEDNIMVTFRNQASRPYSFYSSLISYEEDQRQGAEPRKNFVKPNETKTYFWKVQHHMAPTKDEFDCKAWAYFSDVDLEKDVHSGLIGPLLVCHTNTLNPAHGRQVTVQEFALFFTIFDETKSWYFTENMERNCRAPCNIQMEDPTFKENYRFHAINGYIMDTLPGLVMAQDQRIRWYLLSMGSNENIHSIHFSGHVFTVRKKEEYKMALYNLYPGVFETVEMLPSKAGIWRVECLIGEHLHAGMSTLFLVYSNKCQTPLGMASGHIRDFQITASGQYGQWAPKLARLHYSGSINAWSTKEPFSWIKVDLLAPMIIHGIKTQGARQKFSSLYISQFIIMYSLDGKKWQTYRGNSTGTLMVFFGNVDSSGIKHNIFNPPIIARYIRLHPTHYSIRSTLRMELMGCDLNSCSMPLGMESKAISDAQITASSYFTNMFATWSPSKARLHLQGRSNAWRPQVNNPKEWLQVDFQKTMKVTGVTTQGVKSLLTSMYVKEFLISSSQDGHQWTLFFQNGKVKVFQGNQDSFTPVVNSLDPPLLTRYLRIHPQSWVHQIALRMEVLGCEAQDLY


Columns and labels:
[1] = biological target: T1, A3C1C2 subunit of factor VIII; test: cell-based or functional assay
[2] = biological target: T1, A3C1C2 subunit of factor VIII; test: fluorescence titration of acrylodan-labeled A1 (15 nM) with A3C1C2 (0-300 nM), pH 7.4, quadratic fit
Method: (§1) Purified A1 subunit from WT and Ala108Ile factor VIII was labeled with acrylodan by sulfhydryl specific protein modification as previously described (Wakabayashi et al., “Metal Ion-independent Association of Factor VIII Subunits and the Roles of Calcium and Copper Ions for Cofactor Activity and Inter-subunit Affinity,” Biochemistry 40:10293-10300 (2001), which is hereby incorporated by reference in its entirety). A1 (15 nM) from WT or Ala108Ile factor VIII was reconstituted with A3C1C2 subunit (0-300 nM) at 37° C. for 2 h in buffer B at pH 7.4. Fluorescence measurements were performed using an Aminco-Bowman Series 2 Luminescence Spectrometer (Thermo Spectronic, Rochester, N.Y.) at 23° C. at an excitation wavelength of 395 nm (2 nm bandwidth). Fluorescence emission was monitored at 480-490 nm (8 nm bandwidth) and all spectra were corrected for background. Data were fitted to a quadratic equation by non-linear least squares regression and parameter values were obtained.
(§2) To assess the affinity of the Ala108Ile A1 domain for C2 domain, the purified factor VIII variant and WT were treated with thrombin and the A1 subunits were separately purified as described supra. A1 subunits were then reacted with the environment-sensitive fluorescent probe, acrylodan, and these reagents were used to probe binding with the A3C1C2 subunit. […]

[3] = biological target: T1, A3C1C2 subunit of factor VIII; test: changes in fluorescence of acrylodan labeled-A1 subunits
Method: as §1, §2

[4] = biological target: T1, A3C1C2 subunit of factor VIII; test: fluorescence titration of acrylodan-labeled A1 with A3C1C2
Method: as §1, §2

| fold reduction of decay rate against WT A1 [1] [fold] | Kd [2] [nM] | fold increase in binding affinity against WT [3] [fold] | fold increase in affinity against WT A1 [4] [fold] | Binder |
| --- | --- | --- | --- | --- |
| 4.6 |  |  |  | A1 subunit from Ala108Ile factor VIII (other) ATRRYYLGAVELSWDYMQSDLGELPVDARFPPRVPKSFPFNTSVVYKKTLFVEFTVHLFNIAKPRPPWMGLLGPTIQAEVYDTVVITLKNMASHPVSLHAVGVSYWKISEGAEYDDQTSQREKEDDKVFPGGSHTYVWQVLKENGPMASDPLCLTYSYLSHVDLVKDLNSGLIGALLVCREGSLAKEKTQTLHKFILLFAVFDEGKSWHSETKNSLMQDRDAASARAWPKMHTVNGYVNRSLPGLIGCHRKSVYWHVIGMGTTPEVHSIFLEGHTFLVRNHRQASLEISPITFLTAQTLLMDLGQFLLFCHISSHQHDGMEAYVKVDSCPEEPQLRMKNNEEAEDYDDDLTDSEMDVVRFDDDNSPSFIQIR |
|  | 88.7 |  |  | acrylodan-labeled A1 subunit from WT factor VIII (other, acrylodan on a free thiol, likely Cys310, A1 subunit purified from thrombin-cleaved, EDTA-treated recombinant B-domainless WT factor VIII (BHK cells), then labelled with acrylodan; also called AcA1 (WT); WT A1 subunit) ATRRYYLGAVELSWDYMQSDLGELPVDARFPPRVPKSFPFNTSVVYKKTLFVEFTVHLFNIAKPRPPWMGLLGPTIQAEVYDTVVITLKNMASHPVSLHAVGVSYWKASEGAEYDDQTSQREKEDDKVFPGGSHTYVWQVLKENGPMASDPLCLTYSYLSHVDLVKDLNSGLIGALLVCREGSLAKEKTQTLHKFILLFAVFDEGKSWHSETKNSLMQDRDAASARAWPKMHTVNGYVNRSLPGLIGCHRKSVYWHVIGMGTTPEVHSIFLEGHTFLVRNHRQASLEISPITFLTAQTLLMDLGQFLLFCHISSHQHDGMEAYVKVDSCPEEPQLRMKNNEEAEDYDDDLTDSEMDVVRFDDDNSPSFIQIR |
|  | 24.1 | ~3.7 | ~4 | acrylodan-labeled A1 subunit from Ala108Ile factor VIII (other, acrylodan on a free thiol, likely Cys310, A1 subunit purified from thrombin-cleaved, EDTA-treated B-domainless Ala108Ile factor VIII, then labelled with acrylodan; also called AcA1 (Ala108Ile); Ala108Ile A1) ATRRYYLGAVELSWDYMQSDLGELPVDARFPPRVPKSFPFNTSVVYKKTLFVEFTVHLFNIAKPRPPWMGLLGPTIQAEVYDTVVITLKNMASHPVSLHAVGVSYWKISEGAEYDDQTSQREKEDDKVFPGGSHTYVWQVLKENGPMASDPLCLTYSYLSHVDLVKDLNSGLIGALLVCREGSLAKEKTQTLHKFILLFAVFDEGKSWHSETKNSLMQDRDAASARAWPKMHTVNGYVNRSLPGLIGCHRKSVYWHVIGMGTTPEVHSIFLEGHTFLVRNHRQASLEISPITFLTAQTLLMDLGQFLLFCHISSHQHDGMEAYVKVDSCPEEPQLRMKNNEEAEDYDDDLTDSEMDVVRFDDDNSPSFIQIR |
